# Settings: Kitasatospora aureofaciens, 30 °C, GdnHCl, reversible: yes (>98%), whole UniProt chain shown
protein,measurement,setting,value
"Guanyl-specific ribonuclease Sa wild type, P05798 (protein) DVSGTVCLSALPPEATDTLNLIASDGPFPYSQDGVVFQNRESVLPTQSYGYYHEYTVITPGARTRGTRRIITGEATQEDYYTGDHYATFSLIDQTC",denaturant m value,"pH 5.5, CD, None",2.32 kcal/mol/M
same,unfolding free energy,"pH 5.5, CD, None",7.5 kcal/mol
same,unfolding free energy,"pH 5.5, NMR hydrogen exchange",2.82 kcal/mol
same,denaturant m value,"pH 5.9, CD, None",2.3 kcal/mol/M
same,unfolding free energy,"pH 5.9, CD, None",6.7 kcal/mol
